Measurements: patent publication US20210230248A1, “Multivalent pharmacophores for high avidity and overexpressed-target specific binding and uses thereof” (priority 2020, published 2021)
Each block holds one molecule with its values, some of them ahead of it. Where no end group is shown, it is not given here.

Legend:
[1] = target: T1, uPAR overexpressing Hela cells (Homo sapiens, UniProt Q03405); assay: Competitive binding assay on uPAR overexpressing Hela cells; details: ratio of IC50 values
T1 construct: endogenous in cells; host or cells: Hela cells
From the text: This assay is to measure the binding avidity of multivalent PEG-GFD pharmacophores to uPAR overexpressing Hela cells in comparison to uPA. Hela cells express uPAR but not uPA (Rabbani et al., Neoplasia, 2010, 12(10); 778-88), and therefore competition from endogenous uPA can be excluded.
Mouse anti-uPAR (Clone VIM5) is an uPAR blocking antibody (Sillaber et al., J Biol Chem, 1997, 272(12):7824-32). The potency of multivalent PEG-GFD pharmacophores and native uPA to compete against the antibody in binding to the overexpressed uPAR on the surface of Hela cells is measured and compared in this assay.
Hela cells were detached from culture flasks by trypsin/EDTA, resuspended in complete culture medium in a 50 mL conical tube, and incubated for 1 h at 37° C. in 5% CO2 incubator to allow receptor recovery. PE-conjugated anti-uPAR antibody (Clone VIM5; Invitrogen) at the final concentration of 0.5 μg/100 μL (33.33 nM) was mixed with titrated concentrations of 4-arm PEG-GFD and 6-arm PEG-GFD, and recombinant human uPA (Biolegend) in Stain Buffer. The mixture was added into Hela cells (500,000 cells in 100 μL; final density). […] The fluorescent intensity of PE on Hela cells was quantified by flow cytometry and plotted against the titration of 4-arm PEG-GFD, 6-arm PEG-GFD and uPA. The binding avidity of multivalent PEG-GFD pharmacophores relative to native uPA can be calculated.

H1299 and HT-1080 cells [2] = assay: Matrigel invasion assay; format: cell-based, human; details: 10 nM, 24 h
Method: The migration of cells through Matrigel indicates the ability of the cells to digest the extracellular matrix during the process of migration. The Matrigel invasion assay is similar to the chemotaxis assay above except that the 8 μm pore size filter is coated with Matrigel. BD BioCoat Matrigel Invasion Chamber (Corning) was used for the assay with H1299 and HT-1080 cells. 4-arm PEG-GFD, 6-arm PEG-GFD and the blocking antibody VIM5 were used at the concentration of 10 nM. After 24 h treatment, the Matrigel along with the cells remaining on the upper surface of filter in the upper chamber was scraped off with a cotton swab. The migrated cells were measured with CellTiter-Glo as described above.

H1299 and HT-1080 cells [3] = assay: Chemotaxis assay (fibronectin coated transwell); format: cell-based, human; details: 10% FBS chemoattractant, 16 h
Method: Chemotaxis assay was performed using BD BioCoat 24-well transwell with 8 μm pore size filter which is coated with fibronectin (Corning). For the study, H1299 and HT-1080 cells were detached from culture flasks with trypsin/EDTA, and then the trypsin was deactivated by adding the complete medium. The cells were washed with serum-free medium twice and resuspended at the final density of 50,000 cells in 500 μL DMEM medium supplemented with 0.5% BSA. The cells were treated with multivalent pharmacophores and uPAR blocking antibody for 1 h at 37° C. in 5% CO2 incubator. 650 μL of DMEM with 10% FBS was used as chemoattractant and added into the lower chamber. Serum-free DMEM medium was used as a negative control, and no drug treatment well was considered as 100% migration. After placing the upper chamber into the lower chamber, 500 μL cell suspensions were added to the upper chamber. 4-arm PEG-GFD, 6-arm PEG-GFD and uPAR blocking antibody, VIM5, with various concentrations were added in both upper and lower chambers. The transwell was incubated at 37° C. in 5% CO2 incubator for 16 h. […] The number of cells migrated past the filter was quantify by reading the solution in plate reader after transferring into a white 96-well plates.

[4] = test system: H1299, SW480, HT-1080 and PC3 cells; assay: Cell adhesion assay on vitronectin coated plate; format: cell-based, human; details: four uPAR overexpressing cell lines; 3 h; various concentrations
Method: For adhesion of cancer cells to vitronectin, 96-well plate was coated overnight with vitronectin (Thermo Fisher Scientific) at 5 μg/mL in PBS at 4° C., 50 μL/well. The wells without coating were used as negative controls. The plate was then blocked with 3% MSD Blocking Buffer for 2 h at room temperature. Four uPAR overexpressing human cancer lines were used for the assay: non-small cell lung cancer line H1299, colorectal cancer line SW480, fibrosarcoma line HT-1080 and prostate cancer line PC3. The cells were detached from culture flasks by trypsin/EDTA, resuspended in complete culture medium in a 50 mL conical tube, and incubated for 1 h at 37° C. in 5% CO2 incubator to allow receptor recovery. Cells were then washed with serum-free medium and resuspended in DMEM medium with 0.5% BSA. 50,000 cells in 100 μL were plated into each well with various concentrations of 4-arm and 6-arm PEG-GFD pharmacophores, and uPAR blocking antibody, VIM5. The plates were incubated at 37° C. in 5% CO2 incubator for 3 h, and washed 4 times with PBS with 0.5% BSA. The number of adherent cells in each well was quantified by CellTiter-Glo (Promega).

[5] = target: T2, uPAR on cells (uPAR overexpressing Hela, HT-1080, H1299, SW480 and PC3 cells) (human, UniProt Q03405 23-305); assay: competitive flow cytometry on uPAR overexpressing Hela cells against PE-VIM5 at ~33.33 nM
T2 construct: whole, on cells; also called CD87; overexpressed uPAR
Method: Hela cells were detached from culture flasks by trypsin/EDTA, resuspended in complete culture medium in a 50 mL conical tube, and incubated for 1 h at 37° C. in 5% CO₂ incubator to allow receptor recovery. […] The mixture was added into Hela cells (500,000 cells in 100 μL; final density). After incubation on ice for 3 h with occasional mixing, the cells were washed to remove the unbound test reagents.

[6] = target: T3, CD47 overexpressing Jurkat cells (Homo sapiens, UniProt Q08722); assay: Competitive binding assay on CD47 overexpressing Jurkat cells; details: for IC50: against FITC-conjugated anti-CD47 B6H12.2 at ~33.3 nM, 3 h on ice; for increase of avidity compared to SIRPα monomer: ratio of IC50 values
T3 construct: endogenous in cells; host or cells: Jurkat cells
Method: This assay is to measure the binding avidity of multivalent PEG-SIRPα IgV pharmacophores to CD47 overexpressing Jurkat cells by competing against FITC-conjugated CD47 blocking antibody, and to compare the avidity to the affinity of wide-type SIRPα ectodomain.
FITC-conjugated mouse anti-human CD47 monoclonal antibody (Clone B6H12.2, Invitrogen) at the final concentration of 0.5 μg/100 μL (˜33.3 nM) was mixed with titrated concentration (from 0.04 nM to 10.5 μM in Stain Buffer) of SIRPα monomer (Acro Biosystems), 4-arm PEG-2K SIRPα IgV and 6-arm PEG-3.4K SIRPα IgV, both wide-type and Q67R mutant forms. The mixture was added into Jurkat cells (500,000 cells in 100 μL, final density). After incubation on ice for 3 h with occasional mixing, the cells were washed to remove the unbound reagents. The fluorescence intensity of FITC was quantified by flow cytometry. The increase of the binding activity for multivalent PEG-SIRPα IgV pharmacophores compared to SIRPα monomer can be calculated.

[7] = target: T4, human red blood cells (RBCs) (Homo sapiens, UniProt Q08722); assay: Competitive binding assay on human red blood cells; details: either wide-type or mutant SIRPα IgV; antibody at ~33.3 nM; titration up to 200 nM
T4 construct: from tissue; host or cells: red blood cells from human whole blood of healthy donors
Method: To assess the risks from binding of multivalent PEG-SIRPα IgV pharmacophores to normal RBCs and subsequent anemia as has been reported for many CD47 targeting agents, a similar competitive binding assay as (4) above is conducted using RBCs as the binding targets.
Human whole blood from healthy donors was drawn into sodium heparin tube. The blood was washed 3 times with PBS and diluted in Stain Buffer (0.5×10^6 RBCs in 100 μL, final density). The competitive binding was performed by incubating RBCs with FITC-conjugated CD47 blocking antibody (Clone B6H12.2, Invitrogen) at the final concentration of 0.5 μg/100 μL (˜33.3 nM) and titrated concentration of 4-arm, or 6-arm PEG-SIRPα IgV as described above, or an unconjugated CD47 blocking antibody (B6H12.2, Invitrogen). A mouse isotype IgG1 was used as a negative control. RBCs were incubated with the reagents on ice for 3 h, mixing occasionally. After washing, the fluorescence intensity of FITC on RBCs was quantified by flow cytometry.

T3 sequence (Q08722 19-323): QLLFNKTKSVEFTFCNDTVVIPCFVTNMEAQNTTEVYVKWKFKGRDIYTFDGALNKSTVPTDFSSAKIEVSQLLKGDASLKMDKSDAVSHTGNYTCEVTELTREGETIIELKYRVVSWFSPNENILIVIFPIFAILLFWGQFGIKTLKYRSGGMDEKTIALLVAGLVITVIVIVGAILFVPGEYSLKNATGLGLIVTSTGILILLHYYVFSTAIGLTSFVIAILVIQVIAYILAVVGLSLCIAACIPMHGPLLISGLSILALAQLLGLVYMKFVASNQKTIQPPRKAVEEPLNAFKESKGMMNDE
T4 sequence (Q08722 19-323): as above
T2 sequence (Q03405 23-305): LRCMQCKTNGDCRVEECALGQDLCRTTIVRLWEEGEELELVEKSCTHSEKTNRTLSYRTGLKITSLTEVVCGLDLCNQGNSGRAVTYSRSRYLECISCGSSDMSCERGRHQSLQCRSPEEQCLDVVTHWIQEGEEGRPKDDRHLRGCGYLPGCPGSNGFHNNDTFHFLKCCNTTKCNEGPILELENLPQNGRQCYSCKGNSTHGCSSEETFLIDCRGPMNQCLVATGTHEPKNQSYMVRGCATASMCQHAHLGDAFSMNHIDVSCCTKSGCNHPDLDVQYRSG
T1 sequence (Q03405 23-335): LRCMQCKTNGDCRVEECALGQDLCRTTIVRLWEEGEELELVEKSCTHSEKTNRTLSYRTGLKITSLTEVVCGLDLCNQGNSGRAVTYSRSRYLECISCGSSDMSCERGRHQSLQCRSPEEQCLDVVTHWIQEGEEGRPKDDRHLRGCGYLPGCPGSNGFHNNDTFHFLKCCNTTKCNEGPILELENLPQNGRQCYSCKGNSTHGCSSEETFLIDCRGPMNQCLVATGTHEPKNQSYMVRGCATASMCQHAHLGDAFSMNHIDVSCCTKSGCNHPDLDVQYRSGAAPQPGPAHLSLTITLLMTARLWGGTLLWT

Molecule: 4-arm PEG-GFD: growth factor-like domain of uPA (first 43 amino acids) conjugated to 4-arm PEG-2K (VPSNCDCLNGGTCVSNKYFSNIHWCNCPKKFGGQHCEIDKSKT; not fully specified (C-terminus); ends and bridges not checked; also: conjugated to 4-arm PEG-2K (site not given here))
fold increase in binding activity relative to native uPA [1]: ~31 fold | Matrigel invasion (H1299 and HT-1080 cells [2]): significantly inhibited | migration of cells to the lower chamber (chemotaxis) (H1299 and HT-1080 cells [3]): significantly reduced migration | inhibition of adhesion to vitronectin [4]: inhibited the adhesion of all four cell lines to vitronectin dose-dependently

B3: wide-type 4-arm PEG-SIRPα IgV: 4-arm PEG-2K conjugated with wide-type SIRPα IgV-like domain (conjugate)
chain: EEELQVIQPDKSVLVAAGETATLRCTATSLIPVGPIQWFRGAGPGRELIYNQKEGHFPRVTTVSDLTKRNNMDFSIRIGNITPADAGTYYCVKFRKGSPDDVEFKSGAGTELSVRA
IC50 [6]: 8.12 nM | increase of avidity compared to SIRPα monomer [6]: about 995 folds

B6: wide-type 6-arm PEG-SIRPα IgV: 6-arm PEG-3.4K conjugated with wide-type SIRPα IgV-like domain (conjugate)
chain: EEELQVIQPDKSVLVAAGETATLRCTATSLIPVGPIQWFRGAGPGRELIYNQKEGHFPRVTTVSDLTKRNNMDFSIRIGNITPADAGTYYCVKFRKGSPDDVEFKSGAGTELSVRA
IC50 [6]: 0.723 nM | increase of avidity compared to SIRPα monomer [6]: ~11,174 folds

B8: mutant 4-arm PEG-SIRPα IgV: 4-arm PEG-2K conjugated with Q67R mutant SIRPα IgV-like domain (conjugate)
chain: EEELQVIQPDKSVLVAAGETATLRCTATSLIPVGPIRWFRGAGPGRELIYNQKEGHFPRVTTVSDLTKRNNMDFSIRIGNITPADAGTYYCVKFRKGSPDDVEFKSGAGTELSVRA
IC50 [6]: 10.9 nM

Continued, values first:

IC50 [5]: 1.14 nM
B1: 4-arm PEG-GFD (designed binder)
chain: VPSNCDCLNGGTCVSNKYFSNIHWCNCPKKFGGQHCEIDKSKT
modifications: not fully specified (C-terminus); ends and bridges not checked; also: four GFD units on 4-arm PEG-2K
notes: Four GFD units on 4-arm PEG-2K; Expressed in E. coli; also called tetravalent PEG-GFD pharmacophore; 4-arm PEG growth factor-like domain of uPA

IC50 [5]: 0.412 nM
B2: 6-arm PEG-GFD (designed binder)
chain: VPSNCDCLNGGTCVSNKYFSNIHWCNCPKKFGGQHCEIDKSKT
modifications: not fully specified (C-terminus); ends and bridges not checked; also: six GFD units on 6-arm PEG-3.4K
notes: Six GFD units on 6-arm PEG-3.4K; also called hexavalent PEG-GFD pharmacophore; 6-arm PEG growth factor-like domain of uPA

competitive binding to RBCs against FITC-conjugated CD47 blocking antibody [7]: did not compete
B4: 4-arm PEG-SIRPα IgV: 4 units of SIRPα IgV-like domain conjugated to 4-arm PEG-2K; wide-type or Q67R mutant not specified (conjugate)
chain: EEELQVIQPDKSVLVAAGETATLRCTATSLIPVGPIQWFRGAGPGRELIYNQKEGHFPRVTTVSDLTKRNNMDFSIRIGNITPADAGTYYCVKFRKGSPDDVEFKSGAGTELSVRA

competitive binding to RBCs against FITC-conjugated CD47 blocking antibody [7]: did not compete
B5: 6-arm PEG-SIRPα IgV: 6 units of SIRPα IgV-like domain conjugated to 6-arm PEG-3.4K; wide-type or Q67R mutant not specified (conjugate)
chain: EEELQVIQPDKSVLVAAGETATLRCTATSLIPVGPIQWFRGAGPGRELIYNQKEGHFPRVTTVSDLTKRNNMDFSIRIGNITPADAGTYYCVKFRKGSPDDVEFKSGAGTELSVRA

IC50 [6]: 1.06 nM
B7: mutant 6-arm PEG-SIRPα IgV: 6-arm PEG-3.4K conjugated with Q67R mutant SIRPα IgV-like domain (conjugate)
chain: EEELQVIQPDKSVLVAAGETATLRCTATSLIPVGPIRWFRGAGPGRELIYNQKEGHFPRVTTVSDLTKRNNMDFSIRIGNITPADAGTYYCVKFRKGSPDDVEFKSGAGTELSVRA
